Data reported in the supplement of paper PMC9876800.

Test system: peptide library, one residue held at a place counted from the S/T acceptor
Assay: relative phosphorylation of the sub-library (ratio to the mean residue at this position); higher = residue favoured
Outline: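 Relative sub-library phosphorylation is the ratio of each sub-library's signal to the mean residue at that position. The signal came from phosphorimaging of spots on streptavidin membranes, quantified by densitometry, after purified recombinant kinases reacted with biotinylated degenerate peptide sub-libraries in 384-well plates. Reactions held 50 μM peptide and 50 μM ATP spiked with γ-32P-ATP for 90 min under kinase-specific conditions.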

Chain of STK38L, construct: Full length, human (Q9Y2H1 whole entry, looked up): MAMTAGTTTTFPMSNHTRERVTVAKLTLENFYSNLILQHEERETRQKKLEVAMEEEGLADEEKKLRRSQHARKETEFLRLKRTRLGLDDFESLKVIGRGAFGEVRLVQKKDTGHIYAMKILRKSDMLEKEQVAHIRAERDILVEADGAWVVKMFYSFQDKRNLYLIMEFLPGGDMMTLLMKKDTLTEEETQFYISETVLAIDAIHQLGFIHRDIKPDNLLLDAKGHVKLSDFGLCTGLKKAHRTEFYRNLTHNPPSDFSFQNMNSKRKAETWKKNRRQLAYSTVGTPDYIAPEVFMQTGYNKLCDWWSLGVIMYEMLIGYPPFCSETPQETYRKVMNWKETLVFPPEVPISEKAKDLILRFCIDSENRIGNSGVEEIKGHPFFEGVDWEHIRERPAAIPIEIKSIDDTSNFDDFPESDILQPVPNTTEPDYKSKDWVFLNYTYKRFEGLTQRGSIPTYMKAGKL
Chain of MAP3K11, construct: aa99-398, human (Q16584 99-398, looked up): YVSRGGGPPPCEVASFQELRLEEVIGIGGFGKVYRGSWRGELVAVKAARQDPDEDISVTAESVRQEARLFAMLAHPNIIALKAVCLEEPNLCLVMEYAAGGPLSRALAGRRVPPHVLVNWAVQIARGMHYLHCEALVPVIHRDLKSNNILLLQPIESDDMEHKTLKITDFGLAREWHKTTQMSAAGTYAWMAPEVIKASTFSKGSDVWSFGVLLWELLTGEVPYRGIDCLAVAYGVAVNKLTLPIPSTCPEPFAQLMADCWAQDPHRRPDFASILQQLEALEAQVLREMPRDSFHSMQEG

STK38L, construct: Full length, human (from UniProt Q9Y2H1)
relative phosphorylation
Settings	at +1	at +2	at +3	at +4	at -1	at -2	at -3	at -4	at -5
A fixed	0.661	1.19	0.645	0.811	0.671	0.847	0.656	1.03	0.951
D fixed	1.16	2.27	1.07	1.33	0.872	0.675	0.648	0.889	0.79
E fixed	1.1	0.721	0.987	1.21	0.636	0.712	0.554	0.812	0.582
F fixed	0.851	0.661	1.04	1.1	0.477	0.747	0.435	0.654	0.538
G fixed	1.38	2.25	1.6	1.15	1.68	1.2	0.833	1.39	0.971
H fixed	0.83	2.05	1.22	1.11	0.979	1.6	1.18	1.26	4.33
I fixed	0.832	0.568	0.826	0.711	0.238	0.265	0.23	0.403	0.345
K fixed	0.847	0.396	0.865	0.812	1.9	2.07	2.1	1.55	1.65
L fixed	0.804	0.421	0.788	0.856	0.619	0.315	0.243	0.481	0.433
M fixed	1.48	0.406	0.843	1.01	0.768	0.487	0.399	0.849	0.508
N fixed	1.61	1.09	1.22	1.24	1.43	1.53	1.03	0.989	0.792
P fixed	0.532	0.81	1.27	1.24	2.64	1.45	1.94	1.89	0.701
Q fixed	1.36	1.1	0.932	1.15	1.37	1.18	0.827	0.982	0.629
R fixed	0.577	0.391	0.59	0.588	1	1.9	4.36	1.63	1.7
V fixed	0.919	0.854	0.668	0.686	0.372	0.358	0.324	0.423	0.457
W fixed	1.09	0.958	1.39	0.955	0.545	1.01	0.598	0.942	0.884
Y fixed	0.961	0.856	1.04	1.05	0.799	0.64	0.657	0.829	0.741
pThr fixed	1.29	0.941	0.91	1.61	0.457	0.842	0.692	0.698	0.46
pTyr fixed	1.26	1.04	0.87	1.05	0.76	0.814	0.914	0.895	0.672

MAP3K11, construct: aa99-398, human (from UniProt Q16584)
relative phosphorylation
Settings	at +1	at +2	at +3	at +4	at -1	at -2	at -3	at -4	at -5
A fixed	0.654	0.524	0.71	0.779	0.713	0.983	1.06	1.02	1.21
D fixed	0.261	0.298	0.538	0.592	1.06	1.07	1.34	1.66	1.78
E fixed	0.424	0.285	0.445	0.549	0.891	0.89	1.35	1.46	1.24
F fixed	1.15	0.42	1.21	0.746	0.792	1.12	0.841	0.799	0.716
G fixed	0.664	0.458	1.1	1.03	0.453	1.06	1.36	1.34	1.39
H fixed	1.36	1.53	1.17	1.07	1.52	0.919	1.24	1.03	1.14
I fixed	0.625	0.392	0.562	0.605	0.522	0.769	0.428	0.529	0.508
K fixed	1.79	3.9	2.18	3.13	1.3	0.55	0.933	0.901	1.2
L fixed	0.71	0.407	1	0.589	0.946	0.738	0.654	0.722	0.781
M fixed	1.35	0.49	0.743	0.656	1.28	1.16	0.835	0.749	0.634
N fixed	0.699	0.666	0.971	0.834	1.16	0.949	1.1	0.947	0.996
P fixed	0.268	0.352	0.641	1.58	0.914	2.31	1.64	1.63	1.4
Q fixed	1.33	0.705	0.753	0.876	0.901	0.679	0.948	0.89	0.865
R fixed	2.38	4.19	1.9	2.01	1.38	0.678	0.898	0.918	0.993
V fixed	0.903	0.367	0.756	0.647	0.771	0.779	0.581	0.559	0.903
W fixed	1.29	0.729	1.16	0.527	0.928	1.16	0.754	0.924	0.522
Y fixed	1.14	1.29	1.17	0.784	1.48	1.18	1.04	0.92	0.711
pThr fixed	0.895	0.476	0.69	0.685	0.686	1.02	1.18	1.38	1.21
pTyr fixed	0.498	0.528	0.608	0.454	1.08	0.972	1.27	1.06	1.08
